Laboratory results reported in patent US20070237775A1 (Eli Lilly, published 2007).

T1: human ghrelin peptide spanning amino acids 20-28 (human)
T1 construct: also called hGhrelin 20-28
T1 peptide: KPPAKLQPR

T2: human ghrelin peptide spanning amino acids 4-20 (human)
T2 peptide: FLSPEHQRVQQRKESKK

T3: human ghrelin peptide spanning amino acids 18-28 (human)
T3 construct: also called hGhrelin 18-28; ghrelin peptide 18-28
T3 peptide: SKKPPAKLQPR


Legend:
[1] = target: T1, human ghrelin peptide spanning amino …; assay: peptide competition with full-length hGhrelin for the Fab
[2] = target: T2, human ghrelin peptide spanning amino …; assay: FLIPR calcium assay, peptide competing with hGhrelin for the Fab
Procedure: (§1) The wells are then washed twice with HBSS and 50 μL FLIPR buffer is then added per well.
(§2) Samples are prepared by combining 7.2 μl calcium concentrate (CaCl₂-2H₂O in water at 3.7 mg/ml mixed 1:1 with HBSS and filter sterilized) with 30 μl peptide, 30 μl Fab (of varying concentration), and 16.8 μl hGhrelin (2.5 μM stock) in 3.75% BSA/50% HBSS. The final concentration of the sample solution is 0.75% BSA, and calcium at approximately the same concentration as in the FLIPR buffer. Fifty microliters of the sample solution is added to the 50 μl FLIPR buffer in the well with the AV12 cells. The final concentration of the peptide is 100 nM and the final concentration of the hGhrelin is 0.83 nM. The cell plate is shaken for about 15 seconds prior to loading it into the FLIPR instrument. Test samples or control samples are added to each well, and read by a Fluorometric Imaging Plate Reader (Molecular Devices).
(§3) If there is no Fab or an irrelevant antibody present in the solution, the full-length hGhrelin will be free to bind the GHS-R1a receptor on the AV12 cells and signal transduction will occur resulting in comparatively high values in the assay. If a Fab is present that binds to the full-length hGhrelin in the solution, then the full-length hGhrelin binding to the GHS-R1a receptor is inhibited and signal transduction is thereby inhibited resulting in comparatively lower values in the assay. However, if a peptide (i.e., a fragment of human ghrelin) is also added to the solution and the Fab binds the peptide, then the full-length hGhrelin is not prevented from binding the GHS-R1a receptor, signal transduction is not inhibited, and the values in the assay are comparatively high. […] The peptides competing with hGhrelin for Fab binding were used in the assay at a concentration over 50 times that of hGhrelin.

[3] = target: T3, human ghrelin peptide spanning amino …; assay: as above
Procedure: as §1, §2, §3

Row | binding result [1] | binding result [2] | binding result [3] | Binder
1 | no binding | no binding (tested: peptide 100 nM) | no binding (tested: peptide 100 nM) | Fab 3281 (Fab, V domains shown, Murine Fab from an Omniclonal antibody library (immunized C57/Bl6 mice); kappa light chain (captured and detected with goat anti-mouse kappa)) VH: QVQLQQSRAELAKPGASVKMSCKASGYTFTSYWMHWVKQGPGQGLEWIGYINPSTGYTEYTQKFKDKATLTADKSSSTAYMQLSSLTSEDSAVYYCATDGYDEDYWGQGTTLTVSS VL: DAVMTQIPLTLSVTIGQPASISCRSSQSLGHSNGNTYLHWYLQKPGQSPKLLIYKVSNRFSGVPDRFSGSGSGTDFTLKISRVEAEDLGTYFCSQSTLVPWTFGGGTKLEIKR
2 | – | no binding (tested: peptide 100 nM) | – | Fab 4281 (Fab, V domains shown, Murine Fab, kappa light chain) VH: QVQLQQSRAELAKPGASVKMSCKASGYTFTSYWIHWIKQRPGQGLEWIGYIDPGIGNIEYNQKFQDKATLTADKSSSIVYMQLNRLTSEDSAVYYCATDGYDEDYWGQGTTLTVSS VL: DVVMTQTPLSLPVSLGDQASISCRSSQSLVHSNGNTYLHWYLQKPGQSPKLLIYKVSNRFSGVPDRFSGSGSGTDFTLKISRVEAEDLGTYFCSQSTLVPWTFGGGTKLEIKR
3 | – | no binding (tested: peptide 100 nM) | – | Fab 4731 (Fab, V domains shown, Murine Fab, kappa light chain) VH: QVQLQQSRAELAKPGASVKMSCKASGYTFTSYWMHWVKQGPGQGLEWIGYINPSTGYTEYTQKFKDKATLTADKSSSTAYMQLSSLTSEDSAVYYCATDGYDEDYWGQGTTLTVSS VL: DVVMTQTPLSLPVSLGDQASISCRSSQSLVHSNGNTYLHWYLQKPGQSPKLLIYKVSNRFSGVPDRFSGSGSGTDFTLKISRVEAEDLGTYFCSQSTLVPWTFGGGTKLEIKR
